Test results from patent publication US20210238260A1 (published 2021).

T1: Factor VIIIa (recombinant FVIII, Kogenate FS, activated with alpha-thrombin) (UniProt P00451 20-2351)
T1 construct: also called FVIIIa
T1 sequence (looked up): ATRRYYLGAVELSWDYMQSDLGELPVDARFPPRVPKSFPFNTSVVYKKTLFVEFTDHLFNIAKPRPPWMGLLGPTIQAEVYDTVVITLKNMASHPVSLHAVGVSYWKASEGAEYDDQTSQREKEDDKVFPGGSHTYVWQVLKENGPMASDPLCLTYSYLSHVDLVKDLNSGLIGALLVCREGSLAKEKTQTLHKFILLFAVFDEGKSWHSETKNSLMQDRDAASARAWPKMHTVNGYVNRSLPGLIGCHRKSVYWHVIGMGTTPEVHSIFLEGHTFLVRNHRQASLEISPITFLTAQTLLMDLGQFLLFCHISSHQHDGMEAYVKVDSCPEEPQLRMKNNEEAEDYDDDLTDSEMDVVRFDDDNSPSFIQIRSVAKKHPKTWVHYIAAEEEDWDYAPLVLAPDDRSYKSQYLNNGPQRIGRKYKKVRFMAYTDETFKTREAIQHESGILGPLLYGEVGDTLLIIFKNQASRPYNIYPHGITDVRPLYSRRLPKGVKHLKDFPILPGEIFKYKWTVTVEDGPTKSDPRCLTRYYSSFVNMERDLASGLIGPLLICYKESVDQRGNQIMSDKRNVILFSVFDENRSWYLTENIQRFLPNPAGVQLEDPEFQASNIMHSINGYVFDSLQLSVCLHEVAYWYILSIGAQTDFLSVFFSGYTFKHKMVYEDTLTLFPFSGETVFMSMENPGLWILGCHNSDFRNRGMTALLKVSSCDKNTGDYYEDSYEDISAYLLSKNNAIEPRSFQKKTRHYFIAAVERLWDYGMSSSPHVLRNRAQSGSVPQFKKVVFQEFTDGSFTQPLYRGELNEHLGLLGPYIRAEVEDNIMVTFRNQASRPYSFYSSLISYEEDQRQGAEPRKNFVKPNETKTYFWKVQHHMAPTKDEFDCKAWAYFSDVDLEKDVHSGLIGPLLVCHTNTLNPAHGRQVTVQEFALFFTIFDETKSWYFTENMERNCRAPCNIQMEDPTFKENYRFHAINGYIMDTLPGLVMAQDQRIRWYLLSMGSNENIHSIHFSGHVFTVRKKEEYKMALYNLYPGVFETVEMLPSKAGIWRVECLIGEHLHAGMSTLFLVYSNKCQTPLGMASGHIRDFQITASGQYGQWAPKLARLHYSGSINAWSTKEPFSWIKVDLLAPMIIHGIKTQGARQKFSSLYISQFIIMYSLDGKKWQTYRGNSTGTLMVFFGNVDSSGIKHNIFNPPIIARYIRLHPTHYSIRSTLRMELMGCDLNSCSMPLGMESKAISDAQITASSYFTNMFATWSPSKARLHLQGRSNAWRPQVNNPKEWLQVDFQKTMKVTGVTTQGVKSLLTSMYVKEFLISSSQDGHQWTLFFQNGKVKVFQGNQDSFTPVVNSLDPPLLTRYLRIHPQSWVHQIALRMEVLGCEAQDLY


Columns and labels:
[1] = target: T1, Factor VIIIa (recombinant FVIII, …); experiment: ratio of KD-app of wild-type FIXa (Catalyst Biosciences WT, SEQ ID NO:3) to that of the variant, same Xase assay
Description: The activity of alpha-thrombin was then quenched by the addition of a highly specific thrombin inhibitor, hirudin, prior to initiating the assay.

[2] = target: T1, Factor VIIIa (recombinant FVIII, …); experiment: functional cofactor affinity KD-app: fluorogenic FX activation (Xase) assay, FVIIIa titrated, PC/PS vesicles, saturating FX
Protocol: Reactions were monitored in a SpectraMax fluorescence plate reader for 30 min at 37° C. A standard curve of free AMC served as the conversion factor for RFU to μM in the subsequent data analysis calculations using a dose range that covered 0 μM to 100 μM AMC.

[3] = target: T2, antithrombin III (plasma purified human AT-III), used as the AT-III/unfractionated heparin complex (human, UniProt P01008 33-464); experiment: K0.5: AT-III/UFH titrated against FIXa, 10 s, residual cleavage of Mesyl-D-CHG-Gly-Arg-AMC
T2 construct: also called AT-III/UFH

Binder	KD-WT/KD-mut [1]	Kd [2] [nM]	IC50 [3] [nM]
FIXa-K228N/K247N/N249S/R318Y/R338E/T343R/E410N (enzyme, also called K63N/K82N/N84S/R150Y/R170E/T175R/E240N (chymotrypsin numbering)) chain 1: YNSGKLEEFVQGNLERECMEEKCSFEEAREVFENTERTTEFWKQYVDGDQCESNPCLNGGSCKDDINSYECWCPFGFEGKNCELDVTCNIKNGRCEQFCKNSADNKVVCSCTEGYRLAENQKSCEPAVPFPCGRVSVSQTSKLTR chain 2: VVGGEDAKPGQFPWQVVLNGKVDAFCGGSIVNEKWIVTAAHCVETGVNITVVAGEHNIEETEHTEQNRSVIRIIPHHNYNAAINKYNHDIALLELDEPLVLNSYVTPICIADKEYTNIFLKFGSGYVSGWGRVFHKGYSALVLQYLRVPLVDRATCLESTKFRIYNNMFCAGFHEGGRDSCQGDSGGPHVTEVEGTSFLTGIISWGEECAMKGKYGIYTKVSRYVNWIKNKTKLT	12.2	7.8	–
FIXa-K247N/N249S/R338E/T343R/E410N (enzyme, also called K82N/N84S/R170E/T175R/E240N (chymotrypsin numbering)) chain 1: YNSGKLEEFVQGNLERECMEEKCSFEEAREVFENTERTTEFWKQYVDGDQCESNPCLNGGSCKDDINSYECWCPFGFEGKNCELDVTCNIKNGRCEQFCKNSADNKVVCSCTEGYRLAENQKSCEPAVPFPCGRVSVSQTSKLTR chain 2: VVGGEDAKPGQFPWQVVLNGKVDAFCGGSIVNEKWIVTAAHCVETGVKITVVAGEHNIEETEHTEQNRSVIRIIPHHNYNAAINKYNHDIALLELDEPLVLNSYVTPICIADKEYTNIFLKFGSGYVSGWGRVFHKGRSALVLQYLRVPLVDRATCLESTKFRIYNNMFCAGFHEGGRDSCQGDSGGPHVTEVEGTSFLTGIISWGEECAMKGKYGIYTKVSRYVNWIKNKTKLT	6.8	14	–
FIXa-Y155F/K247N/N249S/R338E/E410N (enzyme) chain 1: YNSGKLEEFVQGNLERECMEEKCSFEEAREVFENTERTTEFWKQYVDGDQCESNPCLNGGSCKDDINSYECWCPFGFEGKNCELDVTCNIKNGRCEQFCKNSADNKVVCSCTEGYRLAENQKSCEPAVPFPCGRVSVSQTSKLTR chain 2: VVGGEDAKPGQFPWQVVLNGKVDAFCGGSIVNEKWIVTAAHCVETGVKITVVAGEHNIEETEHTEQNRSVIRIIPHHNYNAAINKYNHDIALLELDEPLVLNSYVTPICIADKEYTNIFLKFGSGYVSGWGRVFHKGRSALVLQYLRVPLVDRATCLESTKFTIYNNMFCAGFHEGGRDSCQGDSGGPHVTEVEGTSFLTGIISWGEECAMKGKYGIYTKVSRYVNWIKNKTKLT	3.8	24.9	–
FIXa-R338E/R403E/E410N (enzyme, also called R170E/R233E/E240N (chymotrypsin numbering)) chain 1: YNSGKLEEFVQGNLERECMEEKCSFEEAREVFENTERTTEFWKQYVDGDQCESNPCLNGGSCKDDINSYECWCPFGFEGKNCELDVTCNIKNGRCEQFCKNSADNKVVCSCTEGYRLAENQKSCEPAVPFPCGRVSVSQTSKLTR chain 2: VVGGEDAKPGQFPWQVVLNGKVDAFCGGSIVNEKWIVTAAHCVETGVKITVVAGEHNIEETEHTEQKRNVIRIIPHHNYNAAINKYNHDIALLELDEPLVLNSYVTPICIADKEYTNIFLKFGSGYVSGWGRVFHKGRSALVLQYLRVPLVDRATCLESTKFTIYNNMFCAGFHEGGRDSCQGDSGGPHVTEVEGTSFLTGIISWGEECAMKGKYGIYTKVSEYVNWIKNKTKLT	–	–	2350
FIXa-K228N/R318Y/R338E/T343R/R403E/E410N (enzyme, also called K63N/R150Y/R170E/T175R/R233E/E240N (chymotrypsin numbering)) chain 1: YNSGKLEEFVQGNLERECMEEKCSFEEAREVFENTERTTEFWKQYVDGDQCESNPCLNGGSCKDDINSYECWCPFGFEGKNCELDVTCNIKNGRCEQFCKNSADNKVVCSCTEGYRLAENQKSCEPAVPFPCGRVSVSQTSKLTR chain 2: VVGGEDAKPGQFPWQVVLNGKVDAFCGGSIVNEKWIVTAAHCVETGVNITVVAGEHNIEETEHTEQKRNVIRIIPHHNYNAAINKYNHDIALLELDEPLVLNSYVTPICIADKEYTNIFLKFGSGYVSGWGRVFHKGYSALVLQYLRVPLVDRATCLESTKFRIYNNMFCAGFHEGGRDSCQGDSGGPHVTEVEGTSFLTGIISWGEECAMKGKYGIYTKVSEYVNWIKNKTKLT	5.4	17.5	–
FIXa-Y155F/K247N/N249S/R318Y/R338E/T343R/R403E/E410N (enzyme) chain 1: YNSGKLEEFVQGNLERECMEEKCSFEEAREVFENTERTTEFWKQYVDGDQCESNPCLNGGSCKDDINSYECWCPFGFEGKNCELDVTCNIKNGRCEQFCKNSADNKVVCSCTEGYRLAENQKSCEPAVPFPCGRVSVSQTSKLTR chain 2: VVGGEDAKPGQFPWQVVLNGKVDAFCGGSIVNEKWIVTAAHCVETGVKITVVAGEHNIEETEHTEQNRSVIRIIPHHNYNAAINKYNHDIALLELDEPLVLNSYVTPICIADKEYTNIFLKFGSGYVSGWGRVFHKGYSALVLQYLRVPLVDRATCLESTKFRIYNNMFCAGFHEGGRDSCQGDSGGPHVTEVEGTSFLTGIISWGEECAMKGKYGIYTKVSEYVNWIKNKTKLT	6.3	15.3	–
FIXa-R318Y/R338E/T343R/R403E/E410S (enzyme, also called R150Y/R170E/T175R/R233E/E240S (chymotrypsin numbering)) chain 1: YNSGKLEEFVQGNLERECMEEKCSFEEAREVFENTERTTEFWKQYVDGDQCESNPCLNGGSCKDDINSYECWCPFGFEGKNCELDVTCNIKNGRCEQFCKNSADNKVVCSCTEGYRLAENQKSCEPAVPFPCGRVSVSQTSKLTR chain 2: VVGGEDAKPGQFPWQVVLNGKVDAFCGGSIVNEKWIVTAAHCVETGVKITVVAGEHNIEETEHTEQKRNVIRIIPHHNYNAAINKYNHDIALLELDEPLVLNSYVTPICIADKEYTNIFLKFGSGYVSGWGRVFHKGYSALVLQYLRVPLVDRATCLESTKFRIYNNMFCAGFHEGGRDSCQGDSGGPHVTEVEGTSFLTGIISWGEECAMKGKYGIYTKVSEYVNWIKSKTKLT	4.1	23.2	–
FIXa-R318Y/T343R/R403E/E410N (enzyme, also called R150Y/T175R/R233E/E240N (chymotrypsin numbering)) chain 1: YNSGKLEEFVQGNLERECMEEKCSFEEAREVFENTERTTEFWKQYVDGDQCESNPCLNGGSCKDDINSYECWCPFGFEGKNCELDVTCNIKNGRCEQFCKNSADNKVVCSCTEGYRLAENQKSCEPAVPFPCGRVSVSQTSKLTR chain 2: VVGGEDAKPGQFPWQVVLNGKVDAFCGGSIVNEKWIVTAAHCVETGVKITVVAGEHNIEETEHTEQKRNVIRIIPHHNYNAAINKYNHDIALLELDEPLVLNSYVTPICIADKEYTNIFLKFGSGYVSGWGRVFHKGYSALVLQYLRVPLVDRATCLRSTKFRIYNNMFCAGFHEGGRDSCQGDSGGPHVTEVEGTSFLTGIISWGEECAMKGKYGIYTKVSEYVNWIKNKTKLT	1.1	84.1	–
FIXa-Y155F/K247N/N249S/R318Y/R338E/T343R/E410N (enzyme) chain 1: YNSGKLEEFVQGNLERECMEEKCSFEEAREVFENTERTTEFWKQYVDGDQCESNPCLNGGSCKDDINSYECWCPFGFEGKNCELDVTCNIKNGRCEQFCKNSADNKVVCSCTEGYRLAENQKSCEPAVPFPCGRVSVSQTSKLTR chain 2: VVGGEDAKPGQFPWQVVLNGKVDAFCGGSIVNEKWIVTAAHCVETGVKITVVAGEHNIEETEHTEQNRSVIRIIPHHNYNAAINKYNHDIALLELDEPLVLNSYVTPICIADKEYTNIFLKFGSGYVSGWGRVFHKGYSALVLQYLRVPLVDRATCLESTKFRIYNNMFCAGFHEGGRDSCQGDSGGPHVTEVEGTSFLTGIISWGEECAMKGKYGIYTKVSRYVNWIKNKTKLT	6.9	13.9	–
FIXa-Y155F/K247N/N249S/R338E/T343R (enzyme) chain 1: YNSGKLEEFVQGNLERECMEEKCSFEEAREVFENTERTTEFWKQYVDGDQCESNPCLNGGSCKDDINSYECWCPFGFEGKNCELDVTCNIKNGRCEQFCKNSADNKVVCSCTEGYRLAENQKSCEPAVPFPCGRVSVSQTSKLTR chain 2: VVGGEDAKPGQFPWQVVLNGKVDAFCGGSIVNEKWIVTAAHCVETGVKITVVAGEHNIEETEHTEQNRSVIRIIPHHNYNAAINKYNHDIALLELDEPLVLNSYVTPICIADKEYTNIFLKFGSGYVSGWGRVFHKGRSALVLQYLRVPLVDRATCLESTKFRIYNNMFCAGFHEGGRDSCQGDSGGPHVTEVEGTSFLTGIISWGEECAMKGKYGIYTKVSRYVNWIKEKTKLT	6.2	15.4	–
